Experimental data: doi:10.1101/287425

Molecular target: pyrene-labeled actin (rabbit skeletal muscle F-actin) (rabbit) (UniProt P68135)
Assay: other fluorescence titration

- relative pyrene-actin fluorescence after addition of 2.0 mM MgATP: 0.95
- stoichiometry N (myosin heads per actin): 1
Substance: single-headed S1 fragment of bovine ventricular cardiac myosin (from UniProt Q9BE39 1-1935; P85100 1-199) (complex)
